Biological target: FXR1-GST (Homo sapiens, UniProt P51114 1-621)
Assay: EMSA

Sequence of FXR1-GST (P51114 whole entry): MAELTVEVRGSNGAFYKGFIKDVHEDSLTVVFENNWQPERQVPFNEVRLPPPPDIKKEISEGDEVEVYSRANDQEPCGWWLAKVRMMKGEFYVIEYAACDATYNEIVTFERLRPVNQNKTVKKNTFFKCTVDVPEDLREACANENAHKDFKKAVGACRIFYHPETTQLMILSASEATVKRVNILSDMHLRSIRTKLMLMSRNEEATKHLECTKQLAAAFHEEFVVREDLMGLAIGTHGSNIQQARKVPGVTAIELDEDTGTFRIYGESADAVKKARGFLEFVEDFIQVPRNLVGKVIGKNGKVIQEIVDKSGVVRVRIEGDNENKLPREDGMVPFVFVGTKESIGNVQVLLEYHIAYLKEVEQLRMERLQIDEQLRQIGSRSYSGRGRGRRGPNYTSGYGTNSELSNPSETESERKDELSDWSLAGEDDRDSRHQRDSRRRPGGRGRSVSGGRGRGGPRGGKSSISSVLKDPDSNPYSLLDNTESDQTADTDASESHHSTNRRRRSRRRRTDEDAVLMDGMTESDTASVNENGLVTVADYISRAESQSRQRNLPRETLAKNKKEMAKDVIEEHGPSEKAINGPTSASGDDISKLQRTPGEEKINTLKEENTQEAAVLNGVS

UUUUUAUUUAAGUAC (ssRNA) [cMYC 3'UTR-ARE4]
binding result: binds

UUUGUAUUUAAGAAU (ssRNA) [cMYC 3'UTR-ARE2]
binding result: binds

GAAAGAUUUAGCCAU (ssRNA) [cMYC 3'UTR-ARE1]
binding result: binds

UUGUGAUUUAUUUUG (ssRNA) [cMYC 3'UTR-ARE5]
binding result: binds

Reference: publication doi:10.1101/2020.07.19.210252
